In one test the target is T1, BSA (Bos taurus, UniProt P02769).
T1 construct: BSA (bovine serum albumin); also called negative control - BSA
Kind of test: laser scanning confocal fluorescence imaging of protein-coated beads; β2M or BSA coupled to CNBr-activated Sepharose 4 Fast Flow beads; incubated with labeled NB-1 (10 μg/mL in PBS) 5 min at room temperature; washed five times with PBS; FV1000 microscope. As to conditions: both partners purified.

A further test concerns the target T2, β2-Microglobulin (β2M) (Homo sapiens, UniProt P61769).
T2 construct: β2-microglobulin, human (the title says anti-human β2-microglobulin VHHs); Probably the mature protein without the signal peptide (surmised); also called antigen β2M; human β2-microglobulin; source: expressed and purified as previously described [27]
Kind of test: SPR; Biacore T200; β2M immobilized on a CM5 chip to 150 RU; 2-fold serial diluted VHH at 30 μL/min in HBS-EP+; 25 °C; 1:1 binding model; VHH samples after incubation with NHS-Fluo at molar ratio 0 (negative control), 1, 5 or 20 and ultrafiltration. As to conditions: both partners purified. On the technique in general: Surface plasmon resonance follows binding to a sensor surface in real time, without labels.

By Kd is commonly meant the equilibrium constant for the complex coming apart.

T1 sequence (P02769 25-607): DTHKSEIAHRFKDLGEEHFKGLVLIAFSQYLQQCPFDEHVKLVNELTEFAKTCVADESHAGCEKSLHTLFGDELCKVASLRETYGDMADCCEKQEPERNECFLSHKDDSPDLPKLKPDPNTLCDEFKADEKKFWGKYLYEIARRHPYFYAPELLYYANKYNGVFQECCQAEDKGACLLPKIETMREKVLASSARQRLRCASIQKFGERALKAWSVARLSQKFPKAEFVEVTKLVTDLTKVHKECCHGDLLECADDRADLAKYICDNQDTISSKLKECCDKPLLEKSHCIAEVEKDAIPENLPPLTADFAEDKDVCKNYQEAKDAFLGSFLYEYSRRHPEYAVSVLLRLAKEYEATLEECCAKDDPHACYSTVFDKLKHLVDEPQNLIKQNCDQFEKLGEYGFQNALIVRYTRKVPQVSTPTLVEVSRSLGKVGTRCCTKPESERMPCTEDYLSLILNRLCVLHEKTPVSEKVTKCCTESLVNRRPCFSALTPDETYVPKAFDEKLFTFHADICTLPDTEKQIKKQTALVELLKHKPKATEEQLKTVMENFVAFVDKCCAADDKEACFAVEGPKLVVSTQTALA
T2 sequence (P61769 21-119): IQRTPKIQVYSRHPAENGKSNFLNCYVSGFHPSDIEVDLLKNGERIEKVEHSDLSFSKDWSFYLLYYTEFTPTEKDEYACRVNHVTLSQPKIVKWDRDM

B1: NB-1 modified by a 20 fold amount of NHS-Fluo (VHH)
VHH: QVQLVESGGGLVQAGGSLRLSCAASGSTLDSYYIGWFRQAPGKEREGVSCISSSGNSIRYVDSVKDRFTISRDNGKNTAYLHINSLRPEDTAVYYCAASRRGRKPGLPCSLVRERYAYWGQGTQVTVSS
notes: VHH domain as in m2 (NB-1); flexible (G4S)4 linker between the VHH domain and the 6xHis-tag, written out from the printed formula; also called labeled NB-1; modified NB-1; source: E. coli SHuffle T7, purified (HisTrap HP), then modified with NHS-Fluo (2 h, 4 °C), ultrafiltration
With B1, the binding result with BSA is “no binding (tested: 10 μg/mL)”. Also, the Kd in the test with β2-Microglobulin (β2M) was determined as 297 nM.

Values taken from paper PMC6680903 (Molecules, 2019).
